Data published in the MegaScale stability set (Tsuboyama et al. 2023).

B1: 2M8U (parent)
chain: TKAQVIEAFKVFDRDGNGYVTVDYLRKVLNELGDMMPADEIEEMIYEADPQNSGYVQYETFVGMLFL

Variants of: B1
Test: folding stability dG (cDNA display proteolysis); higher = more stable
Conditions: PBS, room temperature

Row | Variant | folding stability dG [kcal/mol]
1 | TKAQVIEAFKVFDRDGNGYVTVDYLRKVLNELGDMMPADEIEEMIYEADPQNSGYVQYQTFVGMLFL [E59Q] | 3.11
2 | TKAQVIEAFKVFDRDGNGYVTVDYLRKVLNELGDMMPADEIEEMIYEADPQNSGYVQYVTFVGMLFL [E59V] | 3.68
3 | TKAQVIEAFKVFDRDGNGYVTVDYLRKVLNELGDMMPADEIEEMIYEADPQNSGYVQYCTFVGMLFL [E59C] | 3.25
4 | TKAQVIEAFKVFDRDGNGYVTVDYLRKVLNELGDMMPADEIEEMIYEADPQNSGYVQYNTFVGMLFL [E59N] | 2.91
5 | TKAQVIEAFKVFDRDGNGYVTVDYLRKVLNELGDMMPADEIEEMIYEADPQNSGYVQYHTFVGMLFL [E59H] | 3.24
6 | TKAQVIEAFKVFDRDGNGYVTVDYLRKVLNELGDMMPADEIEEMIYEADPQNSGYVQYMTFVGMLFL [E59M] | 3.93
7 | TKAQVIEAFKVFDRDGNGYVTVDYLRKVLNELGDMMPADEIEEMIYEADPQNSGYVQYITFVGMLFL [E59I] | 3.41
8 | TKAQVIEAFKVFDRDGNGYVTVDYLRKVLNELGDMMPADEIEEMIYEADPQNSGYVQYTTFVGMLFL [E59T] | 3.12
9 | TKAQVIEAFKVFDRDGNGYVTVDYLRKVLNELGDMMPADEIEEMIYEADPQNSGYVQYWTFVGMLFL [E59W] | 3.37
10 | TKAQVIEAFKVFDRDGNGYVTVDYLRKVLNELGDMMPADEIEEMIYEADPQNSGYVQYDTFVGMLFL [E59D] | 2.99
11 | TKAQVIEAFKVFDRDGNGYVTVDYLRKVLNELGDMMPADEIEEMIYEADPQNSGYVQYSTFVGMLFL [E59S] | 3.05
12 | TKAQVIEAFKVFDRDGNGYVTVDYLRKVLNELGDMMPADEIEEMIYEADPQNSGYVQYFTFVGMLFL [E59F] | 3.54
13 | TKAQVIEAFKVFDRDGNGYVTVDYLRKVLNELGDMMPADEIEEMIYEADPQNSGYVQYPTFVGMLFL [E59P] | 2.47
14 | TKAQVIEAFKVFDRDGNGYVTVDYLRKVLNELGDMMPADEIEEMIYEADPQNSGYVQYKTFVGMLFL [E59K] | 3.23
15 | TKAQVIEAFKVFDRDGNGYVTVDYLRKVLNELGDMMPADEIEEMIYEADPQNSGYVQYRTFVGMLFL [E59R] | 3.06
16 | TKAQVIEAFKVFDRDGNGYVTVDYLRKVLNELGDMMPADEIEEMIYEADPQNSGYVQYLTFVGMLFL [E59L] | 3.47
17 | TKAQVIEAFKVFDRDGNGYVTVDYLRKVLNELGDMMPADEIEEMIYEADPQNSGYVQYATFVGMLFL [E59A] | 3.15
18 | TKAQVIEAFKVFDRDGNGYVTVDYLRKVLNELGDMMPADEIEEMIYEADPQNSGYVQYGTFVGMLFL [E59G] | 2.76
19 | TKAQVIEAFKVFDRDGNGYVTVDYLRKVLNELGDMMPADEIEEMIYEADPQNSGYRQYETFVGMLFL [V56R] | 2.24
20 | TKAQVIEAFKVFDRDGNGYVTVDYLRKVLNELGDMMPADEIEEMIYEADPQNSGYAQYETFVGMLFL [V56A] | 2.7
21 | TKAQVIEAFKVFDRDGNGYVTVDYLRKVLNELGDMMPADEIEEMIYEADPQNSGYQQYETFVGMLFL [V56Q] | 1.96
22 | TKAQVIEAFKVFDRDGNGYVTVDYLRKVLNELGDMMPADEIEEMIYEADPQNSGYCQYETFVGMLFL [V56C] | 2.17
23 | TKAQVIEAFKVFDRDGNGYVTVDYLRKVLNELGDMMPADEIEEMIYEADPQNSGYTQYETFVGMLFL [V56T] | 2.14
24 | TKAQVIEAFKVFDRDGNGYVTVDYLRKVLNELGDMMPADEIEEMIYEADPQNSGYHQYETFVGMLFL [V56H] | 2.04
25 | TKAQVIEAFKVFDRDGNGYVTVDYLRKVLNELGDMMPADEIEEMIYEADPQNSGYDQYETFVGMLFL [V56D] | 2.39
26 | TKAQVIEAFKVFDRDGNGYVTVDYLRKVLNELGDMMPADEIEEMIYEADPQNSGYEQYETFVGMLFL [V56E] | 2.33
27 | TKAQVIEAFKVFDRDGNGYVTVDYLRKVLNELGDMMPADEIEEMIYEADPQNSGYIQYETFVGMLFL [V56I] | 3.69

Row | Variant | folding stability dG [kcal/mol]
28 | TKAQVIEAFKVFDRDGNGYVTVDYLRKVLNELGDMMPADEIEEMIYEADPQNSGYWQYETFVGMLFL [V56W] | 2.49
29 | TKAQVIEAFKVFDRDGNGYVTVDYLRKVLNELGDMMPADEIEEMIYEADPQNSGYFQYETFVGMLFL [V56F] | 2.62
30 | TKAQVIEAFKVFDRDGNGYVTVDYLRKVLNELGDMMPADEIEEMIYEADPQNSGYSQYETFVGMLFL [V56S] | 2.17
31 | TKAQVIEAFKVFDRDGNGYVTVDYLRKVLNELGDMMPADEIEEMIYEADPQNSGYNQYETFVGMLFL [V56N] | 1.99
32 | TKAQVIEAFKVFDRDGNGYVTVDYLRKVLNELGDMMPADEIEEMIYEADPQNSGYLQYETFVGMLFL [V56L] | 3.07
33 | TKAQVIEAFKVFDRDGNGYVTVDYLRKVLNELGDMMPADEIEEMIYEADPQNSGYMQYETFVGMLFL [V56M] | 2.55
34 | TKAQVIEAFKVFDRDGNGYVTVDYLRKVLNELGDMMPADEIEEMIYEADPQNSGYPQYETFVGMLFL [V56P] | 1.86
35 | TKAQVIEAFKVFDRDGNGYVTVDYLRKVLNELGDMMPADEIEEMIYEADPQNSGYKQYETFVGMLFL [V56K] | 1.78
36 | TKAQVIEAFKVFDRDGNGYVTVDYLRKVLNELGDMMPADEIEEMIYEADPQNSGYYQYETFVGMLFL [V56Y] | 2.29
37 | TKAQVIEAFKVFDRDGNGYVTVDYLRKVLNELGDMMPADEIEEMIYEADPQNSGYGQYETFVGMLFL [V56G] | 2.62
38 | TKAQVIEAFKVFDRDGNGYVTVDYLRKVLNELGDMMPADEIEEMIYEADPQNSGYVQKETFVGMLFL [Y58K] | 1.56
39 | TKAQVIEAFKVFDRDGNGYVTVDYLRKVLNELGDMMPADEIEEMIYEADPQNSGYVQPETFVGMLFL [Y58P] | 1.71
40 | TKAQVIEAFKVFDRDGNGYVTVDYLRKVLNELGDMMPADEIEEMIYEADPQNSGYVQMETFVGMLFL [Y58M] | 2.46
41 | TKAQVIEAFKVFDRDGNGYVTVDYLRKVLNELGDMMPADEIEEMIYEADPQNSGYVQFETFVGMLFL [Y58F] | 2.81
42 | TKAQVIEAFKVFDRDGNGYVTVDYLRKVLNELGDMMPADEIEEMIYEADPQNSGYVQDETFVGMLFL [Y58D] | 1.3
43 | TKAQVIEAFKVFDRDGNGYVTVDYLRKVLNELGDMMPADEIEEMIYEADPQNSGYVQHETFVGMLFL [Y58H] | 1.99
44 | TKAQVIEAFKVFDRDGNGYVTVDYLRKVLNELGDMMPADEIEEMIYEADPQNSGYVQTETFVGMLFL [Y58T] | 2.02
45 | TKAQVIEAFKVFDRDGNGYVTVDYLRKVLNELGDMMPADEIEEMIYEADPQNSGYVQLETFVGMLFL [Y58L] | 2.51
46 | TKAQVIEAFKVFDRDGNGYVTVDYLRKVLNELGDMMPADEIEEMIYEADPQNSGYVQVETFVGMLFL [Y58V] | 2.67
47 | TKAQVIEAFKVFDRDGNGYVTVDYLRKVLNELGDMMPADEIEEMIYEADPQNSGYVQIETFVGMLFL [Y58I] | 3.25
48 | TKAQVIEAFKVFDRDGNGYVTVDYLRKVLNELGDMMPADEIEEMIYEADPQNSGYVQEETFVGMLFL [Y58E] | 1.4
49 | TKAQVIEAFKVFDRDGNGYVTVDYLRKVLNELGDMMPADEIEEMIYEADPQNSGYVQGETFVGMLFL [Y58G] | 1.62
50 | TKAQVIEAFKVFDRDGNGYVTVDYLRKVLNELGDMMPADEIEEMIYEADPQNSGYVQWETFVGMLFL [Y58W] | 3.45
51 | TKAQVIEAFKVFDRDGNGYVTVDYLRKVLNELGDMMPADEIEEMIYEADPQNSGYVQSETFVGMLFL [Y58S] | 2.04
52 | TKAQVIEAFKVFDRDGNGYVTVDYLRKVLNELGDMMPADEIEEMIYEADPQNSGYVQNETFVGMLFL [Y58N] | 1.27
53 | TKAQVIEAFKVFDRDGNGYVTVDYLRKVLNELGDMMPADEIEEMIYEADPQNSGYVQAETFVGMLFL [Y58A] | 2.11
54 | TKAQVIEAFKVFDRDGNGYVTVDYLRKVLNELGDMMPADEIEEMIYEADPQNSGYVQRETFVGMLFL [Y58R] | 1.77

Row | Variant | folding stability dG [kcal/mol]
55 | TKAQVIEAFKVFDRDGNGYVTVDYLRKVLNELGDMMPADEIEEMIYEADPQNSGYVQCETFVGMLFL [Y58C] | 2.07
56 | TKAQVIEAFKVFDRDGNGYVTVDYLRKVLNELGDMMPADEIEEMIYEADPQNSGYVQQETFVGMLFL [Y58Q] | 1.77
57 | TKAQVIEAFKVFDRDGNGYVTVDYLRKVLNELGDMMPADEIEEMIYEADPQNSGSVQYETFVGMLFL [Y55S] | 3.25
58 | TKAQVIEAFKVFDRDGNGYVTVDYLRKVLNELGDMMPADEIEEMIYEADPQNSGTVQYETFVGMLFL [Y55T] | 3.11
59 | TKAQVIEAFKVFDRDGNGYVTVDYLRKVLNELGDMMPADEIEEMIYEADPQNSGWVQYETFVGMLFL [Y55W] | 3.55
60 | TKAQVIEAFKVFDRDGNGYVTVDYLRKVLNELGDMMPADEIEEMIYEADPQNSGVVQYETFVGMLFL [Y55V] | 3.44
61 | TKAQVIEAFKVFDRDGNGYVTVDYLRKVLNELGDMMPADEIEEMIYEADPQNSGRVQYETFVGMLFL [Y55R] | 3.37
62 | TKAQVIEAFKVFDRDGNGYVTVDYLRKVLNELGDMMPADEIEEMIYEADPQNSGYVGYETFVGMLFL [Q57G] | 2.69
63 | TKAQVIEAFKVFDRDGNGYVTVDYLRKVLNELGDMMPADEIEEMIYEADPQNSGYVHYETFVGMLFL [Q57H] | 3.85
64 | TKAQVIEAFKVFDRDGNGYVTVDYLRKVLNELGDMMPADEIEEMIYEADPQNSGYVEYETFVGMLFL [Q57E] | 3.56
65 | TKAQVIEAFKVFDRDGNGYVTVDYLRKVLNELGDMMPADEIEEMIYEADPQNSGYVVYETFVGMLFL [Q57V] | 3.1
66 | TKAQVIEAFKVFDRDGNGYVTVDYLRKVLNELGDMMPADEIEEMIYEADPQNSGYVKYETFVGMLFL [Q57K] | 3.2
67 | TKAQVIEAFKVFDRDGNGYVTVDYLRKVLNELGDMMPADEIEEMIYEADPQNSGYVTYETFVGMLFL [Q57T] | 2.41
68 | TKAQVIEAFKVFDRDGNGYVTVDYLRKVLNELGDMMPADEIEEMIYEADPQNSGYVLYETFVGMLFL [Q57L] | 3.08
69 | TKAQVIEAFKVFDRDGNGYVTVDYLRKVLNELGDMMPADEIEEMIYEADPQNSGYVSYETFVGMLFL [Q57S] | 2.71
70 | TKAQVIEAFKVFDRDGNGYVTVDYLRKVLNELGDMMPADEIEEMIYEADPQNSGYVFYETFVGMLFL [Q57F] | 3.62
71 | TKAQVIEAFKVFDRDGNGYVTVDYLRKVLNELGDMMPADEIEEMIYEADPQNSGYVAYETFVGMLFL [Q57A] | 3.31
72 | TKAQVIEAFKVFDRDGNGYVTVDYLRKVLNELGDMMPADEIEEMIYEADPQNSGYVYYETFVGMLFL [Q57Y] | 3.51
73 | TKAQVIEAFKVFDRDGNGYVTVDYLRKVLNELGDMMPADEIEEMIYEADPQNSGYVMYETFVGMLFL [Q57M] | 3.27
74 | TKAQVIEAFKVFDRDGNGYVTVDYLRKVLNELGDMMPADEIEEMIYEADPQNSGYVNYETFVGMLFL [Q57N] | 3.61
75 | TKAQVIEAFKVFDRDGNGYVTVDYLRKVLNELGDMMPADEIEEMIYEADPQNSGYVPYETFVGMLFL [Q57P] | 2.64
76 | TKAQVIEAFKVFDRDGNGYVTVDYLRKVLNELGDMMPADEIEEMIYEADPQNSGYVRYETFVGMLFL [Q57R] | 3.13
77 | TKAQVIEAFKVFDRDGNGYVTVDYLRKVLNELGDMMPADEIEEMIYEADPQNSGYVIYETFVGMLFL [Q57I] | 2.96
78 | TKAQVIEAFKVFDRDGNGYVTVDYLRKVLNELGDMMPADEIEEMIYEADPQNSGYVCYETFVGMLFL [Q57C] | 3.25
79 | TKAQVIEAFKVFDRDGNGYVTVDYLRKVLNELGDMMPADEIEEMIYEADPQNSGYVWYETFVGMLFL [Q57W] | 3.18
80 | TKAQVIEAFKVFDRDGNGYVTVDYLRKVLNELGDMMPADEIEEMIYEADPQNSGYVDYETFVGMLFL [Q57D] | 3.25
